Consider 7 molecules from patent publication US20060234941A1 (US Dept. of Health and Human Services, published 2006).

Test [1] concerns the target T1, H-2Db MHC class I molecule on RMA-S cells (mouse, UniProt P01887 21-119; P01899 25-362).
T1 construct: MHC class I stabilised on RMA-S (H-2b) cells by added peptide; detected with anti-H-2Db monoclonal antibody clone 28-14-8; also called H-2Db molecules
T1 sequence (MHC heavy, looked up): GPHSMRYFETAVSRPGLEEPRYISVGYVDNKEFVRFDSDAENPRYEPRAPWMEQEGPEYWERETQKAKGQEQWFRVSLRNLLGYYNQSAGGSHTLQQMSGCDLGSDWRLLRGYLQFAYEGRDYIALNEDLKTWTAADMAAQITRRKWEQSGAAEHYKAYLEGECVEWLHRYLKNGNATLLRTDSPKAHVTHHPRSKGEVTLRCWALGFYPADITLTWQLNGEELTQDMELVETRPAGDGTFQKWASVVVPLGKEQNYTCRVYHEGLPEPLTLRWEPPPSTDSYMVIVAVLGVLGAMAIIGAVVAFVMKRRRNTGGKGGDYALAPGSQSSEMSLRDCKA
T1 sequence (b2m, looked up): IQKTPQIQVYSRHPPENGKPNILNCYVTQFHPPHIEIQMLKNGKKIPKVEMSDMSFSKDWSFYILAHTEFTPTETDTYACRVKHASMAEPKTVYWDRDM
Nature of the test: RMA-S MHC class I stabilisation assay, flow cytometry with anti-H-2Db antibody. Here is the method: To test the binding affinity of these peptides to H-2Db, an RMA-S binding experiment was performed, and the FI value in the assay was measured. […] The RMA-Binding assays were performed as previously described (Lyman et al., J. Virol. 76:3125-3134, 2002). Briefly, synthetic peptides were dissolved in dimethyl sulfoxide before dilution. For MHC-binding assays, RMA-S cells were loaded with various peptides for 16 to 18 h at 37° C. Levels of surface class I molecules were assessed by flow cytometric analysis (FACScan; Becton Dickinson) using mouse monoclonal antibodies specific for H-2Db (Southern Biotech, clone No. 28-14-8). FI=Fluorescence after peptides stimulation/ Fluorescence without peptide-1.
(In flow cytometry, cells or beads pass a laser one at a time.)

In test [2] the target is T2, HLA-A2 on the surface of T2 cells (human).
T2 construct: Stabilised HLA-A2 detected with pan HLA class I monoclonal antibody W6/32; also called MHC molecules
Nature of the test: T2 HLA-A2 stabilisation assay, flow cytometry with W6/32. Here is the method:
To test the binding affinity of the predicted human peptides for HLA-A2, three exemplary peptides, designated KDR505 (SEQ ID NO:6), KDR775 (SEQ ID NO:7) and KDR1093 (SEQ ID NO:5) were synthesized and evaluated in a T2 binding assay as described by Cerundolo et al., Nature 342:449-452, 1990. In brief, T2 cells were cultured in RPMI1640 with 10% FBS, and grown in 5% CO₂ at 37° C. Cells (1×10⁵) in a volume of 100 μl of RPMI 1640 (serum free) were aliquoted into 96-well, U-bottomed plates and incubated with peptide at a final concentration of 0.1-100 μM plus 5 nM β₂ microglobulin (Cymbus Biotechnology Ltd., Chandlers Ford, Hampshire, United Kingdom) for 18 h at 37° C. in 5% CO₂. The level of stabilized HLA-A2 on the surface of the T2 cells was detected using the pan HLA class I monoclonal antibody W6/32 (European Collection of Animal Cell Cultures (ECACC), Porton Down, Salisbury) that recognizes stabilized HLA-A2 complexes. Samples are fixed in 1% paraformaldehyde in PBS prior to analysis and analyzed on a Becton Dickinson FACSCAN®.

B1: KDR3 (murine VEGFR-2/KDR peptide FSNSTNDILI) (peptide)
peptide: FSNSTNDILI
notes: Synthetic peptide (Sigma); also called VEGFR-2/KDR3
Consider B1, for which the “peptide concentration at FI=0.5” value in test [1] is roughly 3 µM.
For the molecule RAHYNIVTF (peptide, UniProt P03129 49-57, looked up, range 49-57; also called HPV E7 49-57) [Human Papilloma Virus (HPV)16E7 49-57 peptide], in test [1], the “peptide concentration at FI=0.5” value is roughly 12.5 µM.
In the case of AMFFWLLLV [KDR775 (human VEGFR-2/KDR peptide AMFFWLLLV)], in test [2], the binding result is given as “binds”.

B2: KDR2 (murine VEGFR-2/KDR peptide VILTNPISM) (peptide)
peptide: VILTNPISM
notes: Synthetic peptide (Sigma); also called VEGFR-2/KDR2
Turning to B2, the “peptide concentration at FI=0.5” value in test [1] was roughly 24 µM.

B3: Human P53 264-272 peptide (peptide, UniProt P04637 264-272, looked up)
peptide: LLGRNSFEV
notes: range 264-272; also called wild type P53 264-272
B3: in test [1], the binding result was “no binding (tested: 200 µM)” and the “peptide concentration at FI=0.5” value is greater than 200 µM.
For the molecule ALIEGKNKT [KDR505 (human VEGFR-2/KDR peptide ALIEGKNKT)], the binding result in test [2] is listed as “binds”.
For the molecule VLLWEIFSL [KDR1093 (human VEGFR-2/KDR peptide VLLWEIFSL)], the binding result in test [2] was “binds”.
